The target in the test is T1, amyloid beta 42 monomers (UniProt P05067 672-713).
T1 construct: Aβ42, the 42-residue peptide derived from amyloid precursor protein (APP) by proteolysis; HFIP-treated Aβ was considered as Aβm; The peptide fibrillizes during 48 h incubations at 37 °C; also called Aβ42; Aβ; source: bought: Anaspec Inc., purity ≥ 95%; HFIP-treated
The test can be described thus: zeta potential + dynamic light scattering + TEM + CD; Aβ (100 µM; for TEM the ThT ratio, 50 µM Aβ to 6.25 µM βCas) with βCas or βCas AuNPs (12.5 µM βCas equivalent), 48 h at 37 °C in deionized water. Particulars: both partners purified.

B1: β casein (natural protein, UniProt P02666 16-224, looked up)
chain: RELEELNVPGEIVESLSSSEESITRINKKIEKFQSEEQQQTEDELQDKIHPFAQTQSLVYPFPGPIPNSLPQNIPPLTQTPVVVPPFLQPEVMGVSKVKEAMAPKHKEMPFPKYPVEPFTESQSLTLTDVENLHLPLPLLQSWMHQPHQPLPPTVMFPPQSVLSLSQSKVLPVPQKAVPYPQRDMPIQAFLLYQEPVLGPVRGPFPIIV
notes: β casein (βCas); Free βCas, which forms micelles in water; Probably the milk protein, which is naturally phosphorylated (surmise); also called βCas micelles
Take B1: the binding result is given as “binds”.

These data come from PMC6706415, “Inhibition of amyloid beta toxicity in zebrafish with a chaperone-gold nanoparticle dual strategy” (Nature Communications, 2019).
